What was measured:
Conditions in all cases: both partners purified
[1] = target: T1, recombinant TNFR2 extracellular domain fused with rabbit IgG1 Fc (Homo sapiens, UniProt P20333); assay: SPR; Biacore T200; antibodies (1 ug/mL, ca. 400 RU) captured on a CM5 chip with anti-human IgG Fc; TNFR2-rFc and CD30-rFc (10 nM) run one after the other as 1st and 2nd analytes, in both orders; PBS, 0.05% Tween 20, pH 7.4, 25 °C
T1 construct: TNFR2, human, extracellular domain; also called TNFR2-rFc; source: Expi293F, transfected; purified on Protein A (as the chimeric antibodies)

[2] = target: T2, recombinant CD30 extracellular domain fused with rabbit IgG1 Fc (Homo sapiens, UniProt P28908); assay: as above
T2 construct: CD30, human, extracellular domain; also called CD30-rFc; source: Expi293F, transfected; purified on Protein A (as the chimeric antibodies)

[3] = target: T2, recombinant CD30 extracellular domain …; assay: flow cytometry on cells; crosslinking: antigen-expressing cells incubated with mAb or BsAb (10 ug/mL), washed twice, then CD30-rFc or TNFR2-rFc (50 ng/mL) 1 h on ice; rFc detected with R-PE anti-rabbit IgG; the antibody is held on the cells by its other arm

T2 sequence (P28908 19-385): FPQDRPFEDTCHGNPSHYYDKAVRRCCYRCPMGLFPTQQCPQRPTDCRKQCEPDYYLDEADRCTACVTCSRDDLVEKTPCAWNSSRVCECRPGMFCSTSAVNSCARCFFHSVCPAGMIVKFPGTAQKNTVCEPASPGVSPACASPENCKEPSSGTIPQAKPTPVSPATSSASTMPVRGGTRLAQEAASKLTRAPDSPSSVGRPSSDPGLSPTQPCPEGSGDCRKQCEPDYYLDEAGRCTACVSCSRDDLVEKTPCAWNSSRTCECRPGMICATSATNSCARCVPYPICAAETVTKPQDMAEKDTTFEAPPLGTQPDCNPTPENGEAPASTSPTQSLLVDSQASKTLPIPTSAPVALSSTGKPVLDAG

Row | binding result [1] | binding result [2] | binding result [3] | Binder
1 | binds | no binding (tested: 10 nM) | – | anti-TNFR2 TR109, human chimeric monoclonal antibody (antibody, V domains shown) VH: QVQLKESGPGLVAPSQSLSITCTVSGFSLTVYGVNWVRQPPGKGLEWLGMIWGDGSTAYNSALKSRLTITKDNSKTQVFLKMNSLQTDDTARYYCARDGRRYALDYWGQGTSVTVSS VL: DIVLTQSPTSLAVSLGQRATISCRASESVDSYGDSFLHWYQQKPGQPPILLIYRASNLDSGIPARFSGSGSRTDFTLTINPVEADDVATYYCQQSNEDPYTFGGGTKLEIK
2 | no binding (tested: 10 nM) | – | binds | anti-CD30 T104, human chimeric monoclonal antibody (antibody, V domains shown) VH: QIQLVQSGPELKKPGETVKISCKASGYTFTDYSMHWVKQAPGKGLKWMGWINTETGEPTYADDFKGRFAFSLETSASTAYLQINNLKNEDTATYFCTEGYVFDFWGQGTTLTVSS VL: DILLTQSPAILSVSPGERVSFSCRASRSIGTSIHWYQQRTNGSPRLLINYASESISGIPSRFSGSGSGTDFTLSINSVESEDIADYYCQQSNSWPLTFGAGTKLELK
3 | no binding (tested: 10 nM) | binds | – | C-cleaved side product of the IMPTS reaction, monovalent Fab^CD30-Fc (SEC peak P2) (antibody, V domains shown) VH: QIQLVQSGPELKKPGETVKISCKASGYTFTDYSMHWVKQAPGKGLKWMGWINTETGEPTYADDFKGRFAFSLETSASTAYLQINNLKNEDTATYFCTEGYVFDFWGQGTTLTVSS VL: DILLTQSPAILSVSPGERVSFSCRASRSIGTSIHWYQQRTNGSPRLLINYASESISGIPSRFSGSGSGTDFTLSINSVESEDIADYYCQQSNSWPLTFGAGTKLELK
